What all share (settings): both partners purified
Experiment [1] has as its target T1, full-length Rrp5 (recombinant) (S. cerevisiae, UniProt Q05022 1-1729).
T1 construct: Rrp5, S. cerevisiae, 193 kDa, 12 S1 domains followed by seven TPR repeats; The His6 tag is named only for the Has1 pull-down (His6-Rrp5, His-Rrp5); I take both to be the one Rrp5-FL preparation; also called Rrp5-FL; Rrp5_FL
As to the kind of experiment: pull-down; 5 uM Has1 with 3 uM His-Rrp5 on Ni-NTA resin, pull-down buffer, 4°C; eluted with 300 mM imidazole.

Experiment [2] deals with T1, full-length Rrp5 (recombinant). Description: negative-stain single-particle EM reconstruction; 100 pmol Rok1 incubated with Rrp5 in 300 mM NaCl, 10 mM MgCl2, 30 mM MES pH 6.7, 20°C, 2 h; GraFix glycerol/glutaraldehyde gradient; uranyl formate stain.
Experiment [3] has the same target. As to the kind of experiment: pull-down; 10 uM FL Rrp5 or Rrp5_TPR2+7 with 15 uM MBP-Rok1 (or MBP) on amylose resin; 150 mM NaCl, 30 mM HEPES/NaOH pH 7.5, 5% glycerol; 4°C; eluted with 20 mM maltose.
Experiment [4] shares this target. Description: pull-down; 5 uM FL Rrp5 or Rrp5 fragments with 3 uM GST-Rok1 (or GST) on GSH sepharose; 150 mM NaCl, 30 mM HEPES/NaOH pH 7.5, 5% glycerol; 4°C; eluted with 20 mM reduced glutathione.

T1 sequence (Q05022 whole entry, the tested form may be a part): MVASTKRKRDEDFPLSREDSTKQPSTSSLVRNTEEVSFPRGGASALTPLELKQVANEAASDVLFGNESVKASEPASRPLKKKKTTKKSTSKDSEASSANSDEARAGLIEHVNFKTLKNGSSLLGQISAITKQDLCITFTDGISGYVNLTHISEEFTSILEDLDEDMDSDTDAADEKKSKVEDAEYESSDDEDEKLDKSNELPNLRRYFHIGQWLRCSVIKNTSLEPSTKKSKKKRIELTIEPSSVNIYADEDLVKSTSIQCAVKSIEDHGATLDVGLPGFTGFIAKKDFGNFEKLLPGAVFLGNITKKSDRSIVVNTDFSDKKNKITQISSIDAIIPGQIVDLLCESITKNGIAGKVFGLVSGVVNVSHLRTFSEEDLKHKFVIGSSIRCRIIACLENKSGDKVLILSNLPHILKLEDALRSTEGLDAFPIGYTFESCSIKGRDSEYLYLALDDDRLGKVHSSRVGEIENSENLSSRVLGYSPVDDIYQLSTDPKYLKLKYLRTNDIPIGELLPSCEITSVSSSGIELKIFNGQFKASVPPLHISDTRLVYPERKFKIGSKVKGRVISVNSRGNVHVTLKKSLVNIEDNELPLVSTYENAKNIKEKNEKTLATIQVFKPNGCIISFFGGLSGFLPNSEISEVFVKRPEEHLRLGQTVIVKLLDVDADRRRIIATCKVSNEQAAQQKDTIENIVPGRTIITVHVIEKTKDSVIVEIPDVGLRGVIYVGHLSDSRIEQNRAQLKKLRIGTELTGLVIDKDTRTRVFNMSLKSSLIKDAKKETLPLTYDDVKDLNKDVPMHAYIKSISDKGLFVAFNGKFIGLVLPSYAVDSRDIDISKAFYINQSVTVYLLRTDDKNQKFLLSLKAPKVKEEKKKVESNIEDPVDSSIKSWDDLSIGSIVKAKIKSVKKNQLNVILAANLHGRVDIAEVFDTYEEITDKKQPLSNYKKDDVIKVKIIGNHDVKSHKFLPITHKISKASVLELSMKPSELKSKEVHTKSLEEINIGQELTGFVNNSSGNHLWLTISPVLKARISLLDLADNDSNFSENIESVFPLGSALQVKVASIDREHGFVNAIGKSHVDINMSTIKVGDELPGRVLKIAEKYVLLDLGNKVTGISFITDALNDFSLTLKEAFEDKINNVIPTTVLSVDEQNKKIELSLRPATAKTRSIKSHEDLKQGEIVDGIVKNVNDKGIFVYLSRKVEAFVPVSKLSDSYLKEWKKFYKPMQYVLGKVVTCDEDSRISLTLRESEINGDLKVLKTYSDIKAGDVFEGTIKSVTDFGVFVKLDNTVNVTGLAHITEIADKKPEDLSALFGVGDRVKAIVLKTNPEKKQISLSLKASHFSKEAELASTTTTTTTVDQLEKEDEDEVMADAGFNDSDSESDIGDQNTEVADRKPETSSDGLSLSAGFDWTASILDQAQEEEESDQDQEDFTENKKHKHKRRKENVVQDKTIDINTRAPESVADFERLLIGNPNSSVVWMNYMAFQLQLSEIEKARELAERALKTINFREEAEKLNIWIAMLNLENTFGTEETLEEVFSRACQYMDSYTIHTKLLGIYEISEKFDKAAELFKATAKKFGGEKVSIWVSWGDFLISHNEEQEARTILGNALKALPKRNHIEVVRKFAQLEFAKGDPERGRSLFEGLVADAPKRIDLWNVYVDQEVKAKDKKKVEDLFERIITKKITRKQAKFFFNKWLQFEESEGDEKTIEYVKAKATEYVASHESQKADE

B1: Has1 (recombinant) (enzyme)
chain: not shown
notes: Has1, DEAD-box protein, HAS1 gene cloned from yeast into pSV272 as a TEV-cleavable His6-MBP fusion; also called recombinant Has1; source: E. coli Rosetta2 (DE3), purified (Ni-NTA, MonoS, Superdex S-200)
Consider B1, for which the binding result in experiment [1] is listed as “binds”.

B2: Rok1 (recombinant) (enzyme, S. cerevisiae, UniProt P45818 1-564, looked up)
chain: MDIFRVLTRGASVKKESGPKAKAADYSVINGNDENHKEDNNESQIVKELDFFRNKRIISKVEDDREKTTENDSPNKEEKSGNDDGLIKPVITNTVEASALRKSYKGNVSGIDIPLPIGSFEDLISRFSFDKRLLNNLIENGFTEPTPIQCECIPVALNNRDVLACGPTGSGKTLAFLIPLVQQIIDDKQTAGLKGLIISPTKELANQIFIECFKLSYKIFLEKKRPLQVALLSKSLGAKLKNKVVSDKKYDIIISTPLRLIDVVKNEALDLSKVKHLIFDEADKLFDKTFVEQSDDILSACREPSLRKAMFSATIPSNVEEIAQSIMMDPVRVIIGHKEAANTNIEQKLIFCGNEEGKLIAIRQLVQEGEFKPPIIIFLESITRAKALYHELMYDRINVDVIHAERTALQRDRIIERFKTGELWCLICTDVLARGIDFKGVNLVINYDVPGSSQAYVHRIGRTGRGGRSGKAITFYTKQDSVAIKPIINVMKQSGCEVSEWMDKMAKMTRKEKESIKNGKAHKERKQITTVPKMDKAKRRRQQEMIAASKRRKNEELSKKHFSK
notes: Rok1, DEAD-box protein, 64 kDa; Named Rok1 without a tag, in contrast to MBP-Rok1 and GST-Rok1; also called recombinant Rok1
As to B2, the binding result in experiment [2] is “binds”.

B3: maltose binding protein (MBP)-tagged Rok1 (enzyme, S. cerevisiae, UniProt P45818 1-564, looked up)
chain: MDIFRVLTRGASVKKESGPKAKAADYSVINGNDENHKEDNNESQIVKELDFFRNKRIISKVEDDREKTTENDSPNKEEKSGNDDGLIKPVITNTVEASALRKSYKGNVSGIDIPLPIGSFEDLISRFSFDKRLLNNLIENGFTEPTPIQCECIPVALNNRDVLACGPTGSGKTLAFLIPLVQQIIDDKQTAGLKGLIISPTKELANQIFIECFKLSYKIFLEKKRPLQVALLSKSLGAKLKNKVVSDKKYDIIISTPLRLIDVVKNEALDLSKVKHLIFDEADKLFDKTFVEQSDDILSACREPSLRKAMFSATIPSNVEEIAQSIMMDPVRVIIGHKEAANTNIEQKLIFCGNEEGKLIAIRQLVQEGEFKPPIIIFLESITRAKALYHELMYDRINVDVIHAERTALQRDRIIERFKTGELWCLICTDVLARGIDFKGVNLVINYDVPGSSQAYVHRIGRTGRGGRSGKAITFYTKQDSVAIKPIINVMKQSGCEVSEWMDKMAKMTRKEKESIKNGKAHKERKQITTVPKMDKAKRRRQQEMIAASKRRKNEELSKKHFSK
notes: Rok1, DEAD-box protein; also called MBP-Rok1; source: E. coli Rosetta2 (DE3), recombinant; purification not described here
As for B3, the binding result in experiment [3] was “binds”.

B4: glutathione S-transferase (GST)-tagged Rok1 (enzyme, S. cerevisiae, UniProt P45818 1-564, looked up)
chain: MDIFRVLTRGASVKKESGPKAKAADYSVINGNDENHKEDNNESQIVKELDFFRNKRIISKVEDDREKTTENDSPNKEEKSGNDDGLIKPVITNTVEASALRKSYKGNVSGIDIPLPIGSFEDLISRFSFDKRLLNNLIENGFTEPTPIQCECIPVALNNRDVLACGPTGSGKTLAFLIPLVQQIIDDKQTAGLKGLIISPTKELANQIFIECFKLSYKIFLEKKRPLQVALLSKSLGAKLKNKVVSDKKYDIIISTPLRLIDVVKNEALDLSKVKHLIFDEADKLFDKTFVEQSDDILSACREPSLRKAMFSATIPSNVEEIAQSIMMDPVRVIIGHKEAANTNIEQKLIFCGNEEGKLIAIRQLVQEGEFKPPIIIFLESITRAKALYHELMYDRINVDVIHAERTALQRDRIIERFKTGELWCLICTDVLARGIDFKGVNLVINYDVPGSSQAYVHRIGRTGRGGRSGKAITFYTKQDSVAIKPIINVMKQSGCEVSEWMDKMAKMTRKEKESIKNGKAHKERKQITTVPKMDKAKRRRQQEMIAASKRRKNEELSKKHFSK
notes: Rok1, DEAD-box protein; also called GST-Rok1; source: E. coli Rosetta2 (DE3), recombinant; purification not described here
B4: the binding result in experiment [4] was “binds”.

These data come from article PMC4900678, “The DEAD-box Protein Rok1 Orchestrates 40S and 60S Ribosome Assembly by Promoting the Release of Rrp5 from Pre-40S Ribosomes to Allow for 60S Maturation” (PLoS Biology, 2016).
